Assay results as given in article PMC2109139.

Target: subunit of the Mo-Fe protein from Azotobacter vinelandii nitrogenase (Azotobacter vinelandii (strain OP)) (UniProt P07328)
Test: electron microscopy

stoichiometry N: 4
Substance: subunit of the Mo-Fe protein from Azotobacter vinelandii nitrogenase (from UniProt P07328 1-492) (natural protein)
